Values of other authors as cited in paper PMC10616597.

Target: TLR4 (Homo sapiens) (UniProt O00206)
Chain of UniProt O00206 (O00206 24-839): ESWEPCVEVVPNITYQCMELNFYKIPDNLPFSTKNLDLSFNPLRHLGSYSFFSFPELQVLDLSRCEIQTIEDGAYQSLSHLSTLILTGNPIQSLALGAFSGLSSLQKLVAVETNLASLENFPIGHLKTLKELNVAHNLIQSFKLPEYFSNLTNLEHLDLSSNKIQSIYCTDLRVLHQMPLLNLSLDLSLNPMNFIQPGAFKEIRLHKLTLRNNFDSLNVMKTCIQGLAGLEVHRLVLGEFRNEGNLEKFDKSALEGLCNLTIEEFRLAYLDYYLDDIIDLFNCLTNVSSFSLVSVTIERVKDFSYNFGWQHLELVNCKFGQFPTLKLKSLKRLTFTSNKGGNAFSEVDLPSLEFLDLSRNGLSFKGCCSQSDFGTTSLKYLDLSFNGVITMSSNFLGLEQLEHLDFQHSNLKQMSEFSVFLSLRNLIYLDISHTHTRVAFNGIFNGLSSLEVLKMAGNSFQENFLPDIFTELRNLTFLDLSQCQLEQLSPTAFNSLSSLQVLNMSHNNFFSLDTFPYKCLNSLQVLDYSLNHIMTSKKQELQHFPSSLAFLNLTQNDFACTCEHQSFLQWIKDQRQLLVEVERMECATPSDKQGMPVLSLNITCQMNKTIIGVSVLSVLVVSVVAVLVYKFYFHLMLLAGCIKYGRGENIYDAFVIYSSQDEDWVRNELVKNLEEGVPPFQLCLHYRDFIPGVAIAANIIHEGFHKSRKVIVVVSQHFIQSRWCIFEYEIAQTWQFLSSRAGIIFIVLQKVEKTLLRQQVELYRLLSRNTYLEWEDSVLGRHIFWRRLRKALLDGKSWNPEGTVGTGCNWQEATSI

- Kd: 18 nM
Substance: eNAMPT (from UniProt P43490)
